Residues, ends and D or L forms follow the SMILES beside them. *: point of attachment. Cbz = O=C(OCc1ccccc1)*; CH2F = FC*
Assays:
[1] = system: postnatal mouse astrocytes; conditions: for effect on reprogramming efficiency of astrocytes: Ascl1-transfected, 4 days of calcitriol treatment
Protocol: (C) Histogram of astroglial cultures transfected with Ascl1-RFP-encoding plasmid alone or in combination with WT-Bcl-2, EE-Bcl-2 or A-Bcl-2 at 4 days post-transfection (DPT). The number of transfected cells (RFP+) at final time point (4 DPT) was normalized to the initial number of transfected cells (1 DPT) to calculate the % of survival. The % of neuronal conversion was analysed by β-III-tubulin immunostaining and normalized to total number of RFP+ cells at the end of the experiment. Error bars indicate ±SD. *p<0.05, **p<0.01; ANOVA Tukeys post-test.
A, Quantifications at 5 DPT (days post-transfection) showing the effect of the inhibitor of ferroptosis, α-toc and the inhibitor of apoptosis, ZVAD in survival/efficiency of conversion of astroglial cells transfected with Ascl1-RFP.
C, Percentage of neurons in astroglial cells transfected with Ascl1-encoding plasmid alone or in combination with Bcl-2 and/or Vdr at 5 DPT after 4 days of treatment with calcitriol or untreated.
After removal of the meninges, grey matter tissue was dissected from P5-P7 cerebral cortex of C57BL/6J mice and dissociated mechanically. Subsequently, cells were centrifuged for 5 min at 1000 rpm, re-suspended, and plated in medium consisting of DMEM/F12 (Gibco), 3.5 mM glucose (Sigma), 10% fetal calf serum (Gibco), 5% horse serum (Gibco), penicillin/streptomycin (Gibco) and supplemented with B27 (Gibco), 10 ng/mL epidermal growth factor (EGF, Roche) and 10 ng/mL fibroblast growth factor 2 (FGF2, Roche). After one week expansion cells were harvested using trypsin/EDTA (Gibco) and plated onto poly-D-lysine (Sigma-Aldrich) coated glass coverslips in 24-well plates (BD Biosciences) or directly onto the plastic for time lapse experiments at a density of 60,000 cells per well in the same medium. After 24 hours cells were either transfected with plasmid or infected with retroviral vectors and after further 24 hours medium was changed to differentiation medium composed of DMEM/F12 high glucose with GlutaMAX, penicillin/streptomycin and B27 supplement (Gibco) to allow neuronal differentiation.
For transfection DNA-liposome complexes were prepared in Optimem medium (Invitrogen) using the retroviral plasmids described below and Lipofectamine 2000 (Invitrogen). Astrocyte cultures were exposed to DNA-liposome complexes at a concentration of 0.5 μg DNA per 400 μl of Optimem medium for 4 hours and cultured after that in the differentiation medium as above.
Cells were fixed in 4% paraformaldehyde (PFA) in phosphate-buffered saline (PBS) for 10 min at room temperature (RT), washed in PBS and pretreated in 0.5% Triton X-100 in PBS for 30 min, followed by incubation in 2% BSA and 0.5% Triton X-100 in PBS for 30 min. Primary antibodies were incubated on specimen overnight at 4° C. in 2% BSA, 0.5% Triton X-100 in PBS.

[2] = system: reactive glial cells; assay: In vivo conversion of reactive glial cells into neurons after stab wound injury; conditions: for acquisition of neuronal marker NeuN by singly transduced cells: single GFP+ or RFP+ cells
Source text: A, Experimental protocol for stab wound injury and subsequent infection with retroviral vectors (Neurog2/RFP and Bcl-2/GFP) or treatment with calcitriol, analysed at 10 or 20 days post-infection (DPI).
To highlight the relevance of our findings we next tested the efficiency of the methods described above in vivo. For that, we performed stab wound injury followed by injection of retroviral vectors encoding Neurog2-IRES-RFP and Bcl-2-IRES-GFP next to the injury site (FIG. 7A) using a previously described protocol (see Heinrich et al., 2014). Control infected cells were glial in nature, mostly NG2+ cells of the oligodendrocyte lineage or S100b/GFAP+ astrocytes as described before (Heinrich et al., 2014). […] To examine whether key metabolic constraints observed to be important for fate conversion in vitro were also relevant in vivo we tested activation of the Vitamin D receptor pathway by the ligand calcitriol.
Operations were performed in accordance with the policies of the state of Bavaria under license number 55.2-1-54-2532-171-11. A unilateral stab wound lesion (1 mm long, 0.6 mm deep from the dura mater) was performed in the right neocortex with a 19 gauge-thick lancet without injuring the cortical white matter, as previously described (Sirko et al. 2013; Simon et al. 2011). Three days later, 0.5-1 μl of retroviral suspension (Neurog2-IRES-RFP and Bcl-2-IRES-GFP, 1:1) was injected in the site of the lesion with a glass capillary connected to a microinjector (Nanoliter2000+Sys-Micro4, World Precision Instrument), at a rate of 30-60 nl/min. The needle was retracted 5 minutes after completing the injection. When indicated in the text, 200 μl of Calcitriol (Tocris) diluted in corn oil (final concentration of 1 ng/μl) were administered through oral gavage 2 days after the retroviral injection. The dosage was determined according with previous publications (Nashold et al. 2013).
Animals were anesthetized and transcardially perfused with 1× phosphate-buffered saline (PBS), followed by 4% paraformaldehyde (PFA) in PBS. Brains were postfixed for 2 hours, washed twice with PBS and embedded in 4% agarose/water. Finally, 60 μm-thick coronal sections were cut using a vibrating microtome (Leica).

[3] = system: adult human fibroblasts; assay: Neuronal reprogramming of adult human fibroblasts; format: cell-based; conditions: for effect on reprogramming efficiency of human fibroblasts: combination Ascl1/Bcl-2/Vdr, 60 DPI
Source text: To determine whether Bcl-2 would also efficiently enhance reprogramming into neurons in cells from other species, we used fibroblasts obtained from a person that were expanded and transduced as described above with the retroviral vector encoding Ascl1 and RFP alone or in combination with a second vector encoding the human BCL-2 (hBCL-2) and the reporter GFP.
Primary cultures of human skin fibroblasts were established from 3 mm diameter full thickness punch biopsy specimens which were mechanically dissociated before plating. […] For reprogramming experiments cells were plated on coverslips in 24-well plates as described above for astrocytes and 48 hours after infection medium was changed to DMEM high glucose with GlutaMAX and 1% fetal calf serum, penicillin/streptomycin and B27 supplement (Gibco). During the reprogramming process, medium was replaced by conditioned-astrocyte medium every 3 days. Conditioned-astrocyte medium is obtained by growing astroglial culture with differentiation medium (see Cell cultures of astroglia from the postnatal mouse cerebral cortex above) during minimum of 2 days. Then the medium is collected from astrocytes and used for reprogramming of the human cells.
For the expression of neurogenic transcription factors we used self-inactivating retroviral vectors containing the actin promoter with cytomegalovirus enhancer (pCAG) driving the expression of the gene of interest (flag/myc-Ascl1, flag-Neurog2, Bcl-2 or Dlx-2) linked to a fluorescent reporter by internal ribosomal entry site (IRES) as previously described (Heinrich et al., 2011). The mouse version of Bcl-2 cDNA was obtained from Source BioScience (IRAVp968H01145D; pCMV-SPORT6.1-Bcl-2) and the human cDNA version (h-Bcl-2) from addgene (Plasmid number 8793; pMIG-Bcl-2-IRES-GFP) to generate RV-pCAG-flag/myc-Ascl1-IRES-Bcl-2, RV-pCAG-flag-Neurog2-IRES-Bcl-2 or RV-pCAG-Bcl-2-IRES-GFP, which encodes for both Bcl-2 and the reporter GFP. The Bcl-2 mutants A-Bcl-2 and EE-Bcl-2 were produced by directed mutagenesis with the oligos 5′-[…]-3′ (SEQ ID NO: 18) (and complementary (SEQ ID NO: 20)) and 5′-[…]-3′ (SEQ ID NO: 19) (and complementary (SEQ ID NO: 21)) respectively, to generate the vectors pCMV-SPORT6.1-A-Bcl-2, RV-pCAG-Ascl1-IRES-A-Bcl-2 and RV-pCAG-Neurog2-IRES-A-Bcl-2 and the corresponding EE-Bcl-2 versions. Mutations were verified by sequencing. The murine Vdr was obtained from Sino Biological (MG51106-G, Vector pGEM-T) and sub-cloned in the retroviral vector to generate RV-pCAG-Vdr-IRES-GFP.

[4] = system: astroglia isolated from mouse cerebral cortex at postnatal day 5-7; assay: Continuous single cell live imaging of Ascl1-mediated astrocyte-to-neuron reprogramming; format: cell-based; conditions: for increase of proportion of cells successfully completing reprogramming into neurons: Ascl1 + Bcl-2 vs Ascl1 only
Source text: In order to identify the cellular mechanisms of neuronal reprogramming, astroglia isolated from mouse cerebral cortex at postnatal day 5-7 were transfected with an Ascl1-encoding vector thereby targeting non-proliferating cells in addition to those transduced by approaches such as MLV-based retroviral vectors that require proliferation and break-down of the nuclear envelope for successful gene transfer. Our transfection protocol (Heinrich et al., PLoS biology 8, e1000373 (2010); Heinrich et al., Nature protocols 6, 214-228 (2011)) enables cells labelled by red fluorescent protein (RFP) 24 hours after transfection to be subject to continuous live imaging for the main phase of reprogramming (i.e. 6 days). Glial and neuronal cells were identified by their morphology, with the former displaying a flat astrocyte-like morphology and the latter with a round cell soma and thin processes (monopolar, bipolar and multipolar) at least 3× longer than the cell soma. This morphology-based classification was confirmed by post-imaging immunostaining (FIG. 1A). Few of the cells transduced with Ascl1 divided during the 150 hours observation (15%: FIG. 1E). Thus, the vast majority of direct neuronal reprogramming occurs in the absence of proliferation in this system.
Time-lapse video microscopy was performed with a cell observer (Zeiss) at a constant temperature of 37° C. and 8% CO2. Phase contrast images were acquired every 5 minutes, and fluorescence pictures every 4-6 hours for 6.5-7.5 days using a 10× phase contrast objective (Zeiss), and an AxioCamHRm camera with a self-written VBA module remote controlling Zeiss AxioVision 4.7 software (Rieger and Schroeder, Journal of cellular biochemistry 108, 343-352 (2009)). Movies were assembled using Image J 1.42q (National Institute of Health, USA) software and are played at speed of 3 frames per second.

[5] = system: Mouse embryonic fibroblasts (MEFs); assay: Fibroblast-to-neuron reprogramming of MEFs with retroviral vectors, β-III-tubulin immunostaining; format: cell-based
[6] = system: vitamin d receptor (vdr); assay: Vdr expression during neuronal reprogramming (immunostaining); format: cell-based; conditions: during neuronal reprogramming with Ascl1, 5 DPI
Protocol: A, Percentage of cells expressing Vdr in cultures infected with Ascl1-encoding vector alone or Ascl1+A-Bcl-2 at 5 DPI. Vdr presence was determined by immunostaining (B). Note that Bcl-2 increases the proportion of cells expressing endogenous Vdr during neuronal reprogramming.

[7] = astroglial cells transfected with Ascl1-RFP, 5 DPT

COC(=O)C[C@H](NC(=O)[C@H](C)NC(=O)[C@@H](NC(=O)OCc1ccccc1)C(C)C)C(=O)CF [ZVAD] (Cbz-Val-Ala-Asp(OMe)-CH2F)
effect on efficiency of conversion (reprogramming efficiency) [1, 7]: not conversion efficiency

C=C1/C(=C\C=C2/CCC[C@]3(C)[C@@H]([C@H](C)CCCC(C)(C)O)CC[C@@H]23)C[C@@H](O)C[C@@H]1O [calcitriol, reference compound]
effect on reprogramming efficiency of astrocytes ([1]; 5 DPT): enhance reprogramming efficiency | effect on morphology and maturation state of the neurons ([2]; Neurog2 + Bcl-2, calcitriol 200 ng orally, 23 days after viral infection): profoundly improved morphology and maturation state of the neurons | proportion of NeuN+ neurons of all co-transduced cells ([2]; Neurog2 + Bcl-2 co-expression, calcitriol 200 ng orally 2 days after viral injection, 10 DPI): ~90% | effect on reprogramming efficiency of human fibroblasts [3]: enhance reprogramming efficiency

Cc1c(C)c2c(c(C)c1O)CC[C@@](C)(CCC[C@H](C)CCC[C@H](C)CCCC(C)C)O2 [α-tocopherol]
effect on efficiency of conversion (reprogramming efficiency) [1, 7]: increase reprogramming efficiency | effect on survival / cell death [1, 7]: reduces cell death

hBcl-2: human BCL-2 encoded by a retroviral vector with the reporter GFP
increase of β-III-tubulin+ cells compared to Ascl1/RFP expressing cells ([3]; co-transduced with Ascl1): 32 × fold | co-infected cells (RFP and GFP) that were β-III-tubulin+ ([3]; co-transduced with Ascl1, fibroblasts from a person): up to 70%

B1: Vdr: murine vitamin D receptor over-expressed from retroviral vector RV-pCAG-Vdr-IRES-GFP (protein, listed as Mus musculus)
chain: MEAMAASTSLPDPGDFDRNVPRICGVCGDRATGFHFNAMTCEGCKGFFRRSMKRKALFTCPFNGDCRITKDNRRHCQACRLKRCVDIGMMKEFILTDEEVQRKREMIMKRKEEEALKDSLRPKLSEEQQHIIAILLDAHHKTYDPTYADFRDFRPPIRADVSTGSYSPRPTLSFSGDSSSNSDLYTPSLDMMEPASFSTMDLNEEGSDDPSVTLDLSPLSMLPHLADLVSYSIQKVIGFAKMIPGFRDLTSDDQIVLLKSSAIEVIMLRSNQSFTLDDMSWDCGSQDYKYDITDVSRAGHTLELIEPLIKFQVGLKKLNLHEEEHVLLMAICIVSPDRPGVQDAKLVEAIQDRLSNTLQTYIRCRHPPPGSHQLYAKMIQKLADLRSLNEEHSKQYRSLSFQPENSMKLTPLVLEVFGNEIS
effect on reprogramming efficiency of astrocytes ([1]; 5 DPT): enhance reprogramming efficiency | effect on reprogramming efficiency of human fibroblasts [3]: enhance reprogramming efficiency

B2: Bcl-2: mouse Bcl-2 cDNA expressed from plasmid or retroviral vector; anti-apoptotic member of the Bcl-2 family (protein, listed as Mus musculus)
chain: MAQAGRTGYDNREIVMKYIHYKLSQRGYEWDAGDADAAPLGAAPTPGIFSFQPESNPMPAVHRDMAARTSPLRPLVATAGPALSPVPPVVHLTLRRAGDDFSRRYRRDFAEMSSQLHLTPFTARGRFATVVEELFRDGVNWGRIVAFFEFGGVMCVESVNREMSPLVDNIALWMTEYLNRHLHTWIQDNGGWDAFVELYGPSMRPLFDFSWLSLKTLLSLALVGACITLGAYLGHK
effect on total number of surviving cells and reprogrammed neurons ([1]; co-transfected with Ascl1/RFP, 6 and 12 days): distinctly increased the total number of surviving cells and reprogrammed neurons | fraction of cells with acquired neuronal morphology dying ([4]; Ascl1 + Bcl-2): about ⅓ | survival rate of remaining glial cells ([4]; Ascl1 + Bcl-2): 10% | survival rate of successfully converted cells ([4]; Ascl1 + Bcl-2): 2/3 | effect on rate of proliferation during reprogramming ([4]; Ascl1 + Bcl-2, 150 h): did not affect the rate of proliferation during reprogramming | effect on speed of astrocyte-to-neuron conversion ([4]; Ascl1 + Bcl-2, first 50-75 h of tracking): accelerated astrocyte-to-neuron conversion | increase of proportion of cells successfully completing reprogramming into neurons ([4]; at 50 h of tracking): ~8 fold | increase of proportion of cells successfully completing reprogramming into neurons ([4]; end of the tracking time period): over 3 fold | effect on survival of cells during neuronal conversion ([4]; co-transduction with Ascl1, 150 hours imaging): robustly enhanced survival of cells during neuronal conversion | neuronal conversion of co-transduced cells (GFP+/RFP+) ([2]; Neurog2-IRES-RFP and Bcl-2-IRES-GFP co-transduced, 10 DPI): many co-transduced cells (GFP+/RFP+) exhibited elongated neuronal-shape morphology and were immunoreactive for NeuN | acquisition of neuronal marker NeuN by singly transduced cells ([2]; 10 DPI): rarely acquired the neuronal marker NeuN | neuronal conversion in MEFs (β-III-tubulin) ([5]; Ascl1-based retroviral vectors, 14 days after infection): 42.8% | effect on expression of vdr [6]: induces expression of vdr

B3: Neurog2: neurogenic transcription factor expressed from retroviral vector with RFP (protein, UniProt P70447 1-263, looked up)
Neurogenin-2: MFVKSETLELKEEEEVLMLLGSASPASATLTPMSSSADEEEDEELRRPGSARGQRGAEAEQGVQGSPASGAGGCRPGRLLGLMHECKRRPSRSRAVSRGAKTAETVQRIKKTRRLKANNRERNRMHNLNAALDALREVLPTFPEDAKLTKIETLRFAHNYIWALTETLRLADHCAGAGGLQGALFTEAVLLSPGAALGASGDSPSPPSSWSCTNSPASSSNSTSPYSCTLSPASPGSDVDYWQPPPPEKHRYAPHLPLARDCI
acquisition of neuronal marker NeuN by singly transduced cells ([2]; 10 DPI): rarely acquired the neuronal marker NeuN | proportion of neurons induced from MEFs, of all infected cells ([5]; Neurog2-based retroviral vectors, 15 days after infection): 10%
